Consider two substances from publication doi:10.1101/2023.08.08.552426.

The target of experiment [1] is smORF5 (A0901_04910) (Apilactobacillus kunkeei strain A0901). Briefly: NMR relaxation.
Experiment [2] addresses smORF7 (A0901_04830) (Apilactobacillus kunkeei strain A0901). Nature of the experiment: NMR relaxation.

Broadly, the stoichiometry N is the number of molecules, sites or subunits per partner or assembly. smORF5 (A0901_04910) (natural protein) displayed a stoichiometry N in experiment [1] of 2.
On to smORF7 (A0901_04830) (natural protein), for which the stoichiometry N in experiment [2] was 2.
